Target: Fas on primary mouse hepatocytes (mouse) (UniProt P25446)
Assay: cell-based or functional assay

UniProt P25446, sequence (P25446 22-327): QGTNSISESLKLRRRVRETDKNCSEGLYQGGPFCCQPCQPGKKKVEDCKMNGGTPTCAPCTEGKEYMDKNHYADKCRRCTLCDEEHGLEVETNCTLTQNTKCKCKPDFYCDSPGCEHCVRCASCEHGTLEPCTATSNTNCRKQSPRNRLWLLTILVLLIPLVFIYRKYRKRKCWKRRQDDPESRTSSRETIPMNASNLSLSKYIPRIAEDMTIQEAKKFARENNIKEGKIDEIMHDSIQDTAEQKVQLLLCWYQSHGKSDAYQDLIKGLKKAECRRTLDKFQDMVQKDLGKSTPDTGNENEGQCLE

- TUNEL-stained cells, hepatocytes from Fas (sequence1)-siRNA treated mice (Fas expression silenced), Jo2 500 ng/mL for 24 hours: 7.9%
- apoptotic cells by FITC-TUNEL staining, hepatocytes from untreated or mock-treated mice, Jo2 500 ng/mL for 24 hours: 87.8%
Substance: agonistic anti-Fas antibody (Jo2)
